Laboratory results taken from patent publication US20120192301.

Assays:
[1] = system: SBS 26334 ZFN (engineered); assay: cell_activity; conditions: Cel-I indels, pair 26323/26334, K562, no donor
[2] = system: SBS 26323 ZFN (engineered); assay: cell_activity; conditions: Cel-I indels, pair 26323/26334, K562, no donor

Sequence	activity [1] [%]	activity [2] [%]
AACAGGTAAGCTCCATTGTGCTTATATC (double strand) [SNCA site 36 (25358/26334)]	< 45	–
CACACCATGCACCACTCCCTCCTTGGTT (double strand) [SNCA site 37 (26323/26327/26331)]	–	< 45
